Laboratory results taken from publication PMC6658616, “Novel Peptide Conjugates of Modified Oligonucleotides for Inhibition of Bacterial RNase P” (Frontiers in Pharmacology, 2019).

Experiments:
A. baumannii = assay: Conjugate penetration into bacterial cells, flow cytometry; assay type: cell-based, Acinetobacter baumannii; settings: 1 µM conjugate in LB medium, 1 h at 37°C, 3'-fluorescein label, mean ± SD from four independent experiments
E. coli = assay: as above; assay type: cell-based, Escherichia coli; settings: 1 µM conjugate in LB medium, 1 h at 37°C, 3'-fluorescein label, mean ± SD from four independent experiments

| Substance | Level of penetration, %, A. baumannii (A. baumannii) | Level of penetration, %, E.coli (E. coli) | Level of penetration, %, A. baumannii (A. baumannii; listed as 5’-Pept2 -pgd-inh3- Flu) |
| --- | --- | --- | --- |
| 5’-Pept1-d(CAAGCAGCxCxTxAxCxCxC)–Flu-3’ [5'-Pept1-pgd-inh3-Flu, 5’-Pept1 conjugate of pgd-inh3 with 3’-fluorescein] | 1,8±0,2% | 4,1±0,1% | – |
| 5’-Pept2-d(CAAGCAGCxCxTxAxCxCxC)–Flu-3’ [5'-Pept2-pgd-inh3-Flu, 5’-Pept2 conjugate of pgd-inh3 with 3’-fluorescein] | 6,5±0,5% | 5,3±0,3% | 6.5% |
| 5’-Pept3-d(CAAGCAGCxCxTxAxCxCxC)–Flu-3’ [5'-Pept3-pgd-inh3-Flu, 5’-Pept3 conjugate of pgd-inh3 with 3’-fluorescein] | 1,7±0,3% | 7,0±1% | – |
| 5’-Pept4-d(CAAGCAGCxCxTxAxCxCxC)–Flu-3’ [5'-Pept4-pgd-inh3-Flu, 5’-Pept4 conjugate of pgd-inh3 with 3’-fluorescein] | 2,0±0,3% | 6,4±0,2% | – |
